Experimental data from patent publication US20250341522A1, “Treatment Strategies for Pancreatic Cancer Using Recombinant Acid Sphingomyelinase” (University of Cincinnati, priority 2024, published 2025).
Several values for one entry are separate records, joined by “and”; a condition that tells them apart may be missing. Identical values can stand only once. Like-named read-outs stand apart in the source and are kept apart here.

Tests used:
KPC tumor cells = test: Survival after i.p. injection of KPC tumor cells (Example 11); format: in vivo, mice; details: 50 000 KPC tumor cells i.p., rec. ASM i.p. twice daily for 2 weeks, starting 2 days after tumor injection; for Survival of individual subjects: anti-PD1 every 2nd day i.p. 250 μg/25 g where combined
Procedure: Group 1: 50 000 KPC tumor cells were i.p. injected and tumor development was determined. For this group, the subjects survived, respectively, for 27, 28, 28, 29, 30, and 31 days.
Group 2: Survival time was collected for subjects upon application of recombinant acid sphingomyelinase (i.p., twice daily, for 2 weeks, starting 2 days after tumor injection). For this group, the subjects survived, respectively, for 48, 55, 57, 60, 62, 65 and 70 days. The acid sphingomyelinase was injected for a longer time and i.p. in these experiments than in FIG. 11.
Group 3: Survival time was collected for subjects upon application of recombinant acid sphingomyelinase (i.p., twice daily, for 2 weeks, starting 2 days after tumor injection)+application of anti-PD1 antibodies (every 2nd day i.p., 250 μg/25 g). For this group, the subjects survived, respectively, for 75, 80, 85, 87, 90, 93 and 96 days. The half-life time of acid sphingomyelinase is rather short in mice (2 hrs, but much longer in humans with 2 weeks). Thus, the i.p. injection are not very sufficient and must be replaced by continuous infusion, which may allow complete elimination of the tumors.

PD1 on CD3 lymphocytes = test: PD1 surface expression on CD3 lymphocytes by flow cytometry in KPC tumor mice (Example 12); format: in vivo; details: wildtype mice, KPC-PDAC (50 000 cells i.p.), 21 days; rec. ASM for 2 days with 4 i.p. injections/day; individual mice
Procedure: FIG. 12 is a graph showing the PDI expression on lymphocytes of tumor mice upon treatment with recombinant acid sphingomyelinase or solvent.
The PD1 expression on lymphocytes with/without treatment with recombinant acid sphingomyelinase was determined. The surface expression of PD1 on CD3 lymphocytes was determined by flow cytometry upon staining with FITC-anti-PD1 and APC-anti-CD3 antibodies, expressed as mean fluorescence in a.u. of PD1 in the CD3-positive cell population. Mice were i.p. injected with 50 000 KPC tumor cells, left for 21 days untreated or treated with recombinant acid sphingomyelinase for 2 days with 4 i.p. injections/day.

KPC cells = test: Tumor growth in wt mice after peritoneal injection of KPC cells, gemcitabine plus recombinant ASM (Example 10, FIG. 11); format: in vivo; details: 0.75 mg/kg i.v. twice daily, 2 treatment cycles of 4 days each, in combination with gemcitabine; KPC tumor-injected wt mice
Procedure: FIG. 11 is a graph showing the results of wt mice that were treated with gemcitabine alone, gemcitabine plus recombinant ASM, or vehicle control after peritoneal injection of KPC cells. Recombinant ASM was administered twice daily at 0.75 mg/kg i.v. for two treatment cycles of 4 days each.
Since PDAC growth in ASM-tr mice. we determined the therapeutic potential of exogenous administration of recombinant ASM. We administered 0.75 mg/kg recombinant ASM i.v. twice daily to tumor-injected mice for 2 treatment cycles of 4 days each in combination with the standard treatment, i.e. gemcitabine. […] However, because the half-life of recombinant ASM is only 2 h, these studies must be repeated with continuous infusion of ASM.
Wt mice were treated with gemcitabine alone (“Group 1”), gemcitabine plus recombinant ASM (“Group 2”) or vehicle control after peritoneal injection of KPC cells (“Group 3”). Recombinant ASM was administered twice daily 0.75 mg/kg i.v. for two treatment cycles of 4 days each.

[1] = cited from earlier work
[2] = in humans; cited from earlier work

B1: recombinant ASM: recombinant acid sphingomyelinase (EC 3.1.4.12, SMPD1), a lysosomal hydrolase glycoprotein degrading sphingomyelin to phosphorylcholine and ceramide (protein, UniProt P17405 47-631, looked up)
Sphingomyelin …: LALSDSRVLWAPAEAHPLSPQGHPARLHRIVPRLRDVFGWGNLTCPICKGLFTAINLGLKKEPNVARVGSVAIKLCNLLKIAPPAVCQSIVHLFEDDMVEVWRRSVLSPSEACGLLLGSTCGHWDIFSSWNISLPTVPKPPPKPPSPPAPGAPVSRILFLTDLHWDHDYLEGTDPDCADPLCCRRGSGLPPASRPGAGYWGEYSKCDLPLRTLESLLSGLGPAGPFDMVYWTGDIPAHDVWHQTRQDQLRALTTVTALVRKFLGPVPVYPAVGNHESTPVNSFPPPFIEGNHSSRWLYEAMAKAWEPWLPAEALRTLRIGGFYALSPYPGLRLISLNMNFCSRENFWLLINSTDPAGQLQWLVGELQAAEDRGDKVHIIGHIPPGHCLKSWSWNYYRIVARYENTLAAQFFGHTHVDEFEVFYDEETLSRPLAVAFLAPSATTYIGLNPGYRVYQIDGNYSGSSHVVLDHETYILNLTQANIPGAIPHWQLLYRARETYGLPNTLPTAWHNLVYRMRGDMQLFQTFWFLYHKGHPPSEPCGTPCRLATLCAQLSARADSPALCRHLMPDGSLPEAQSLWPRPLFC
Survival of individual subjects (KPC tumor cells): 48 days and 55 days and 57 days and 60 days and 62 days and 65 days and 70 days
Survival of individual subjects (KPC tumor cells; listed as Rec. ASM alone): 48 days and 55 days and 57 days and 60 days and 62 days and 65 days and 70 days
Avg. Survival (KPC tumor cells; anti-PD1 every 2nd day i.p. where combined): 59.6 days
Surface expression of PD1 on CD3 lymphocytes, mean fluorescence of PD1 in the CD3-positive cell population (PD1 on CD3 lymphocytes): 138 a.u. and 129 a.u. and 125 a.u. and 118 a.u. and 131 a.u. and 115 a.u. and 141 a.u.
tumor growth (KPC cells): delayed tumor growth
half-life time of acid sphingomyelinase ([1]; in mice): 2 h
half-life of recombinant ASM ([1]; stated in mouse study of Example 10): 2 h
half-life time of acid sphingomyelinase [2]: 2 weeks
